Test results taken from patent US20060286117A1, “Neuronally expressed stem cell factor modulates angiogenesis and neural stem cell migration to areas of brain injury” (priority 2003, published 2006).

Experiments:
HBMEC [1] = assay: EC proliferation, HBMEC exposed to SCF; format: cell-based, human
BMVEC-b [2] = assay: Matrigel tube formation (EC differentiation) assay, BMVEC-b; format: cell-based, bovine; conditions: SCF 20 ng/ml
Description: (§1) After the Matrigel (BD Biosciences) formed a solid gel in 24-well plates, serum-starved BMVEC-b cells were seeded on the gel surface at 10^5 cells per well and cultured in treatment medium in the presence or absence of SCF (20 ng/ml). Primary HBMEC were placed on the gel directly at 24×10^3 per well. Tubular formation was observed using an inverted phase contrast microscope, and images were captured at 4 and 18 hr after cell seeding. Each experiment was repeated two or three times.

[3] = tested on: c-Kit, MAPK and PI3K/Akt pathways in HBMEC; assay: Immunoblot of SCF/c-Kit signal transduction, HBMEC; format: cell-based, human; conditions: SCF 50 ng/ml
Description: (§2) Confluent-grown ECs were treated with 50 ng/ml of SCF for 5, 10, 15, and 30 min after 24 hr of serum starvation. The ECs were collected with RIPA lysis buffer (Upstate, Charlottesville, Va.) containing 50 mM NaF, 1 mM Na3VO4, […], and Protease Inhibitor Cocktail (Roche). The antibodies were purchased from Cell Signaling Technology, Inc. (Beverly, Mass.) or as mentioned otherwise. All the primary antibodies were used in a 1:1000 dilution except for the anti-SCF antibody, which was used in a 1:2000 dilution. The primary antibodies were anti-phospho-c-Kit, anti-phospho-MEK1/2 and anti-MEK1/2, anti-phospho-p44/42 MAPK and anti-p44/42 MAPK, anti-phospho-SAPK/JNK and anti-SAPK/JNK, anti-phospho-p38 MAPK and anti-p38 MAPK, anti-phospho-Akt and anti-Akt, anti-phospho-mTOR and anti-mTOR, anti-phospho-4E-BP1 and anti-4E-BP1, anti-SCF and anti-VEGF (Chemicon, Temecula, Calif.), and anti-β-tubulin (Sigma). Re-blotting was done after membranes were stripped by re-blot kit (Chemicon). Tie2 detection in Matrigel plugs from the in vivo Matrigel assay was carried out by immunoprecipitation and immunoblotting. The gel plugs were carefully separated from muscle and skin and homogenized with RIPA lysis buffer. The resulting total tissue lysates ([…]) were immunoprecipitated with Tie2 antibody (Santa Cruz Biotechnology, Inc., Santa Cruz, Calif.) and then analyzed by immunoblot with Tie2 antibody (Zadeh et al. 2004 Am J Pathol 162:467-476).

[4] = tested on: c-Kit, MAPK and PI3K/Akt pathways in HUVEC; assay: Immunoblot of SCF/c-Kit signal transduction, HUVEC; format: cell-based, human
Description: as §2

bMVEC-B cells = assay: bMVEC-B DNA synthesis by thymidine incorporation (Example 3); format: cell-based; conditions: rmSCF 1 ng/ml to 250 ng/ml, 72 hours
Description: To specifically confirm the pro-angiogenic effects of SCF in the brain, bMVEC-B cells were used. The cells were cultured in the presence of different concentrations of rmSCF (1 ng/ml to 250 ng/ml) or 0.1% BSA only medium for 72 hours. The rate of DNA synthesis was measured by thymidine incorporation.

[5] = tested on: c-Kit, MAPK and PI3K/Akt pathways in BMVEC-b; assay: Immunoblot of SCF/c-Kit signal transduction, BMVEC-b; format: cell-based, bovine
Description: as §2

HBMEC [6] = assay: Matrigel tube formation (EC differentiation) assay, HBMEC; format: cell-based, human
Description: as §1

endogenous NSPCs = assay: In vivo progenitor cell migration, BrdU labeling and intracerebral rmSCF injection; parameters: species or system mouse; conditions: vs contralateral side and PBS-injected animals, day 7
HUVEC = assay: Thymidine incorporation in HUVEC exposed to SCF; format: cell-based, human; conditions: basal medium, 48 hr
Description: (§3) After ECs (3×10^3/well) were adhered to 96-well gelatin-coated plates (BD Discovery Labware, Bedford, Mass.), the EC growth medium was replaced by SCF ([…]) (R&D Systems, Minneapolis, Minn.) suspended in treatment medium (basal medium with 0.1% BSA) for an additional 48 hr (HUVEC and HMVEC-d) or 72 hr (BMVEC-b) with renewal of medium at 24 hr intervals. ECs were cultured for 4 hr in 0.25 μCi of [^3H]thymidine (Amersham Pharmacia Biotech, Piscataway, N.J.) at the end. High molecular mass [^3H]-radioactivity was precipitated and counted.

BMVEC-b [7] = assay: Thymidine incorporation in BMVEC-b exposed to SCF; format: cell-based, bovine; conditions: basal medium
Description: as §3

SCID mice = assay: In vivo angiogenesis assay, matrigel plug with rmSCF (Example 3); parameters: species or system mouse; conditions: rmSCF 50 ng/ml, subcutaneous, 7 days, vs PBS control
Description: Recombinant mouse SCF (rmSCF) was used at 50 ng/ml in an in vivo angiogenesis assay. The matrigel plug containing SCF or PBS control was placed subcutaneously in SCID mice for 7 days, and the blood vessel formation within the gel was examined by H&E staining. […] In the higher magnification figure on the right side, the red blood cells inside of the newly formed vessel are indicated by an arrow.

HMVEC-d = assay: Thymidine incorporation in HMVEC-d exposed to SCF; format: cell-based, human; conditions: basal medium, 48 hr
Description: as §3

[8] = SCF 50 ng/ml after serum starvation

B1: SCF: Stem cell factor protein (R&D Systems), ligand of the c-Kit receptor (protein)
chain: KEICGNPVTDNVKDITKLVANLPNDYMITLNYVAGMDVLPSHCWLRDMVIQLSLSLTTLLDKFSNISEGLSNYSIIDKLGKIVDDLVLCMEENAPKNIKESPKRPETRSFTPEEFFSIFNRSIDAFKDFMVASDTSDCVLSSTLGPEKDSRVSVTKPFMLPPVA
- HBMEC proliferative response (HBMEC [1]; SCF from 0.1 to 10 ng per ml): dose-dependent growth
- EC growth and survival with SCF alone (HBMEC [1]; without the addition of other cytokines such as VEGF): sufficient to sustain human brain microvascular EC and other EC cell growth and survival
- time to mature appearing capillary-like structures (BMVEC-b [2]): ≤ 18 h
- time to migration in Matrigel (BMVEC-b [2]): ≤ 4 h
- phosphorylation of Akt [3]: induced immediate phosphorylation
- phosphorylation of SAPK/JNK [3]: could not induce phosphorylation
- phosphorylation of c-Kit [3]: induced immediate phosphorylation
- phosphorylation of p38 MAPK [3]: could not induce phosphorylation
- phosphorylation of p44/42 MAPK [3]: induced immediate phosphorylation
- duration of p38 MAPK activation ([4]; SCF 50 ng/ml): over 30 min
- phosphorylation of 4E-BP1 ([4]; SCF 50 ng/ml): increased phosphorylation of 4E-BP1
- phosphorylation of Akt ([4]; SCF 50 ng/ml): significantly enhanced
- phosphorylation of MEK1/2 ([4]; SCF 50 ng/ml): dramatically increased
- phosphorylation of p44/42 MAPK ([4]; SCF 50 ng/ml): dramatically increased
- time of SAPK/JNK activation following SCF exposure ([4]; SCF 50 ng/ml): 10 to 15 min
- duration of c-Kit auto-tyrosine-phosphorylation [4, 8]: 30 min
- time of peak c-Kit auto-tyrosine-phosphorylation [4, 8]: 10 to 15 min
- bMVEC-B DNA synthesis (thymidine incorporation) (bMVEC-B cells): stimulated DNA synthesis
- duration of p38 MAPK activation ([5]; SCF 50 ng/ml): over 30 min
- phosphorylation of 4E-BP1 ([5]; SCF 50 ng/ml): increased phosphorylation of 4E-BP1
- phosphorylation of Akt ([5]; SCF 50 ng/ml): significantly enhanced
- phosphorylation of MEK1/2 ([5]; SCF 50 ng/ml): dramatically increased
- phosphorylation of p44/42 MAPK ([5]; SCF 50 ng/ml): dramatically increased
- time of SAPK/JNK activation following SCF exposure ([5]; SCF 50 ng/ml): 10 to 15 min
- duration of c-Kit auto-tyrosine-phosphorylation [5, 8]: 30 min
- time of peak c-Kit auto-tyrosine-phosphorylation [5, 8]: 10 to 15 min
- time to mature appearing capillary-like structures (HBMEC [6]): ≤ 18 h
- time to migration in Matrigel (HBMEC [6]): ≤ 4 h
- BrdU-positive cells in the SCF-injected area (endogenous NSPCs): Significantly more BrdU labeled cells
- proliferation (thymidine incorporation) (HUVEC): stimulated proliferation in all three primary ECs in a dose-dependent manner
- BMVEC-b proliferation increase (thymidine incorporation) (BMVEC-b [7]; 1 ng of SCF per ml for 72 hr): approximately 6 fold
- BMVEC-b proliferation increase (thymidine incorporation) (BMVEC-b [7]; 10 ng of SCF per ml for 72 hr): ~7 fold
- proliferation (thymidine incorporation) (BMVEC-b [7]; BMVEC-b, 72 hr): stimulated proliferation in all three primary ECs in a dose-dependent manner
- blood vessel formation within the matrigel plug (H&E) (SCID mice): stimulates angiogenesis
- proliferation (thymidine incorporation) (HMVEC-d): stimulated proliferation in all three primary ECs in a dose-dependent manner
